To fix the notation:
B1: Azoarcus group I ribozyme (parent)
chain: GUGCCUUGCGCCGGGAAACCACGCAAGGGAUGGUGUCAAAUUCGGCGAAACCUAAGCGCCCGCCCGGGCGUAUGGCAACGCCGAGCCAAGCUUCGGCGCCUGCGCCGAUGAAGGUGUAGAGACUAGACGGCACCCACCUAAGGCAAACGCUAUGGUGAAGGCAUAGUCCAGGGAGUGGCGAAAGUCACACAAACCGG

This is an account of results in the RNAGym collection of RNA variant scans (doi:10.1093/molbev/msab373).

In the data set the parent is B1. As to the kind of experiment: reverse-splicing fitness (ratio to wild type); higher = more active; in vitro selection; Mg2+ level not given. An outline of the steps:
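An in vitro group I ribozyme library with randomized positions was T7-transcribed and gel-purified. In triplicate, 10 pmol RNA in EPPS pH 7.5 was reacted with 50 pmoles of a 30-nt RNA substrate for 1 h at 37 °C across several added MgCl2 levels (1–48 mM), then stopped with EDTA. Products were reverse transcribed from a substrate-complementary primer, PCR-amplified and sequenced (HiSeq 4000). Fitness is a variant's read proportion after selection over that before, normalised to wild type.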
As for C82U A111G A145G C150G C169A U176G, the reverse-splicing fitness stood at 0.00737. For the variant C82U A111G A145G C150G C169A U176A, the reverse-splicing fitness worked out at 0.012. Under C82U A111G A145C C169A U176G stands 0.00408; under C82U A111G A145C C169A U176A, 0.00798. Under C82U A111G A145C C169A U176C stands 0.00406; under C82U A111G A145G C150A U176C, 0.0481; under C82U A111G A145G C150A U176A, 0.0328. As to C82U A111G A145G C150A U176G, the reverse-splicing fitness is 0.0108. In the case of C82U A111G A120U A145G, the reverse-splicing fitness was 0.0428. As to C82U A111G A120U A145U, the reverse-splicing fitness was 0.0429. As for C82U A111G A120U A145U C150G C169A U176A, the figure is 0.00259. Under C82U A111G A120U A145U C150G C169A U176G stands 0.00207. Under C82U A111G A120U A145U C150G C169A U176C stands 0.00216. As for C82U A111G A120U C150U U176G, the reverse-splicing fitness was found to be 0.00374. With C82U A111G A120U C150U U176A, the reverse-splicing fitness was found to be 0.00678. In the case of C82U A111G A120U C150U U176C, the reverse-splicing fitness is 0.0105. As for C82U A111G A120U C150A U176C, the figure is 0.00592; as for C82U A111G A120U C150A U176G, 0.00238. As for C82U A111G A120U C150A U176A, the reverse-splicing fitness was 0.00587.

Take C82U A111G A120U C150G C169A: the reverse-splicing fitness is 0.00636. For the variant C82U A111G A120U C150G C169U, the reverse-splicing fitness came to 0.004. With C82U A111G A120U C150G C169G, the reverse-splicing fitness was determined as 0.00572.

Take C82U A111G A120U A145G C169U: the reverse-splicing fitness is 0.00406. For the variant C82U A111G A120U A145G C169A, the reverse-splicing fitness is 0.00248. Under C82U A111G A120U A145G C169G stands 0.00348. C82U A111G A145G C150A C169G U176A: the reverse-splicing fitness amounted to 0.0194. Under C82U A111G A145G C150A C169G U176G stands 0.00543.

For the variant C82U A111G A145G C150A C169G U176C, the reverse-splicing fitness came to 0.0236. As for C82U A111G A120U A145C C169A U176A, the figure is 0.00176; as for C82U A111G A120U A145C C169A U176C, 0.00194.

As to C82U A111G A120U A145C C169A U176G, the reverse-splicing fitness turned out to be 0.00179. Take C82U A111G A120U A145U C150G C169G U176A: the reverse-splicing fitness was 0.00235. As for C82U A111G A120U A145U C150G C169G U176C, the figure is 0.00239; as for C82U A111G A120U A145U C150G C169G U176G, 0.00175. Under C82U A111G A120U A145G C150G C169G U176G stands 0.00255; under C82U A111G A120U A145G C150G C169G U176C, 0.00401; under C82U A111G A120U A145G C150G C169G U176A, 0.0073. As for C82U A111G A120U A145C C150G C169U, the figure is 0.00264; as for C82U A111G A120U A145C C150G C169G, 0.00252. As to C82U A111G A120U A145C C169U U176A, the reverse-splicing fitness came out at 0.00232. For C82U A111G A120U A145C C169U U176C, the reverse-splicing fitness was found to be 0.00209. As for C82U A111G A120U A145C C169U U176G, the reverse-splicing fitness was found to be 0.00126. As for C82U A111G A120U A145C C150U C169U U176C, the figure is 0.00222; as for C82U A111G A120U A145C C150U C169U U176G, 0.00188; as for C82U A111G A120U A145C C150U C169U U176A, 0.00264.

As for C82U A111G A120U C150U C169U, the reverse-splicing fitness is 0.00388.

On to C82U A111G A120U C150U C169A, for which the reverse-splicing fitness is 0.00334. As for C82U A111G A120U C150U C169G, the figure is 0.00459; as for C82U A111G A120U A145U C150U C169G, 0.00305. For the variant C82U A111G A120U A145U C150U C169A, the reverse-splicing fitness was 0.00252.

Turning to C82U A111G A120U A145U C150U C169U, the reverse-splicing fitness is 0.00372.

As to C82U A111G A120U A145G C150A C169U U176A, the reverse-splicing fitness stood at 0.00427. Take C82U A111G A120U A145G C150A C169U U176C: the reverse-splicing fitness stood at 0.00341. Under C82U A111G A120U A145G C150A C169U U176G stands 0.00215.

As to C82U A111G A120U A145U C150G C169U U176G, the reverse-splicing fitness amounted to 0.00213. Turning to C82U A111G A120U A145U C150G C169U U176A, the reverse-splicing fitness amounted to 0.00271. Consider C82U A111G A120U A145U C150G C169U U176C, for which the reverse-splicing fitness came to 0.00227. Take C82U A111G A120U A145C C169G U176A: the reverse-splicing fitness came out at 0.00218.

For C82U A111G A120U A145C C169G U176C, the reverse-splicing fitness stood at 0.0021. In the case of C82U A111G A120U A145C C169G U176G, the reverse-splicing fitness came to 0.00126. C82U A111G A120U A145G C150A C169A U176A: the reverse-splicing fitness is 0.00624. As for C82U A111G A120U A145G C150A C169A U176G, the figure is 0.00258; as for C82U A111G A120U A145G C150A C169A U176C, 0.00365.

In the case of C82U A111G A120U A145U C150G, the reverse-splicing fitness came to 0.00775.

Turning to C82U A111G A120U A145U C150U, the reverse-splicing fitness stood at 0.0272. As for C82U A111G A120U A145U C150A, the figure is 0.00631; as for C82U A111G A120U A145G C150U C169U, 0.00469.

Consider C82U A111G A120U A145G C150U C169G, for which the reverse-splicing fitness was 0.00615. As for C82U A111G A120U A145G C150U C169A, the figure is 0.0056. As for C82U A111G A145C C150G C169G, the figure is 0.00679. Regarding C82U A111G A145C C150G C169U, the reverse-splicing fitness stood at 0.00804. In the case of C82U A111G A145C C150G C169A, the reverse-splicing fitness is 0.00744. With C82U A111G A120U A145C C169G, the reverse-splicing fitness is 0.00247.

Regarding C82U A111G A120U A145C C169A, the reverse-splicing fitness was 0.00224.

For the variant C82U A111G A120U A145C C169U, the reverse-splicing fitness was 0.00379. Under C82U A111G A120U C150U C169A U176C stands 0.00318; under C82U A111G A120U C150U C169A U176G, 0.00203. On to C82U A111G A120U C150U C169A U176A, for which the reverse-splicing fitness turned out to be 0.00365. In the case of C82U A111G A120U C150A C169G U176A, the reverse-splicing fitness was 0.0073.

With C82U A111G A120U C150A C169G U176C, the reverse-splicing fitness was 0.00439. Turning to C82U A111G A120U C150A C169G U176G, the reverse-splicing fitness worked out at 0.00213.

For C82U A111G A120U C150G U176A, the reverse-splicing fitness came to 0.00422. As for C82U A111G A120U C150G U176C, the figure is 0.0053.
